Sequences and labels used below:
B2: MPP-processed MTP-FAγ51::NifU::TwinStrep fusion polypeptide encoded by SN166 (scar9::GG::NifU::TS) (other)
chain: not shown
notes: N-terminal analysis and the tryptic peptide ISTQVVR confirmed cleavage at the intended site; Purified from N. benthamiana leaves; also called scar9-NifU::TS; scar9-NifU-TwinStrep

Experiment [1] addresses T1, MPP-processed MTP-FAγ51::AnfD::Twin Strep fusion polypeptide (gene of SN177, expressed from multi-gene vector … (Azotobacter vinelandii, UniProt P16266 1-518)).
T1 construct: The eluted AnfD migrated at the size of the processed form; also called AnfD polypeptide (SL30)
The experiment is described as follows: discussion of the AnfD::TwinStrep purification, aerobic.

Experiment [2] has as its target T2, MPP-processed MTP-FAγ51::NifS::HA fusion polypeptide encoded by SN31 (scar9::GG::NifS::HA) (Klebsiella oxytoca, UniProt P05344 1-397).
T2 construct: also called scar9-NifS::HA; processed NifS
T2 sequence: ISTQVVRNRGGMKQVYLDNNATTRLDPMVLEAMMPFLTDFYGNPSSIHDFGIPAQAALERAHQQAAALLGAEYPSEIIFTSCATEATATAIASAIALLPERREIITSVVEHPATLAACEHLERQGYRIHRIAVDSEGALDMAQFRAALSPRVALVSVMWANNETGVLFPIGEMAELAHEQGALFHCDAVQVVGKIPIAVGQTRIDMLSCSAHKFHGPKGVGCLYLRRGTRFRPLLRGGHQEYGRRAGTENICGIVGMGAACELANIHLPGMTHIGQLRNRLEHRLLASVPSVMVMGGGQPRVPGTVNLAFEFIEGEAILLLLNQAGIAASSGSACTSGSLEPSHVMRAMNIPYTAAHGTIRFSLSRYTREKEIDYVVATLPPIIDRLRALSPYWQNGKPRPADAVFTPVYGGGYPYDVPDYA
The experiment is described as follows: co-purification on StreptactinXT column through NifU::TS from N. benthamiana leaf extract (SN31 + SN166), anaerobic, non-denaturing; anti-HA Western blot. (Immunoblotting shows a protein as a band on a membrane.)

Experiment [3] addresses T3, MPP-processed MTP-FAγ51::HA::AnfD fusion polypeptide (gene of SN161; in SL26, SL34, SL43, SL93) (Azotobacter vinelandii, UniProt P16266 1-518).
T3 construct: also called HA::AnfD processed; AnfD polypeptide
The experiment is described as follows: co-purification on Strep-tactin column through TwinStrep::AnfK (SL34), aerobic; anti-HA Western blot.

Experiment [4] concerns the target T4, MPP-processed MTP-FAγ51::NifU::HA fusion polypeptide encoded by SN32 (scar9::GG::NifU::HA) (Klebsiella oxytoca, UniProt P05343 1-274).
T4 construct: also called scar9::NifU::HA; processed NifU
T4 sequence: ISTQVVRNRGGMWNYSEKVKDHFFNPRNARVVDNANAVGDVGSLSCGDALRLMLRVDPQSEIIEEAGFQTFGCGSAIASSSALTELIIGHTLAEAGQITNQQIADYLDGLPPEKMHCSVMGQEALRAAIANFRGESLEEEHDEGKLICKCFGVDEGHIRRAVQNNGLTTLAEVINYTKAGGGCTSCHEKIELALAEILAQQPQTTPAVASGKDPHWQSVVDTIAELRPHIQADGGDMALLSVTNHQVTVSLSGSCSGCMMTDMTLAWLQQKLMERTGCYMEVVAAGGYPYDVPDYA
The experiment is described as follows: co-purification on StrepTactinXT column through NifS::TS from N. benthamiana leaf extract (SN231 + SN32); anti-HA Western blot.

The target in experiment [5] is B2. The experiment is described as follows: co-purification on StreptactinXT column through NifU::TS from N. benthamiana leaf extract (SN31 + SN166), anaerobic, anti-HA Western blot of the eluate.

T1 sequence (P16266 other isoform, or with tags, fused parts or gaps): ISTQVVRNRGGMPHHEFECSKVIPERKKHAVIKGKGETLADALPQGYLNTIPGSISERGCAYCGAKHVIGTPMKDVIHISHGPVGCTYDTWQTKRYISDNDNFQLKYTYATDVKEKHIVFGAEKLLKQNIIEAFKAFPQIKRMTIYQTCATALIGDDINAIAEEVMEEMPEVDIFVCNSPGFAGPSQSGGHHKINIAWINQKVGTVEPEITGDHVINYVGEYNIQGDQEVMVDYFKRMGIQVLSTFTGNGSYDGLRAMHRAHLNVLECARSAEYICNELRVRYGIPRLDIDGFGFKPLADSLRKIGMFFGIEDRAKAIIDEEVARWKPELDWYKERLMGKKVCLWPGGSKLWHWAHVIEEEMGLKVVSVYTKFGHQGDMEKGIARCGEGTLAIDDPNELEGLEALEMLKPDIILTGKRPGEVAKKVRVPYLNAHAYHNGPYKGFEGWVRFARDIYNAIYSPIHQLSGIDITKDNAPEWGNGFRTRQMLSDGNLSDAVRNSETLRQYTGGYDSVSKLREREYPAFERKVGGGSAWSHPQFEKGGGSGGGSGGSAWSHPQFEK

B1: MPP-processed MTP-FAγ51::HA::AnfK fusion polypeptide (gene of SN129; in SL26, SL30, SL93) (enzyme)
chain: ISTQVVRNRGGYPYDVPDYAGGMTCEVKEKGRVGTINPIFTCQPAGAQFVSIGIKDCIGIVHGGQGCVMFVRLIFSQHYKESFELASSSLHEDGAVFGACGRVEEAVDVLLSRYPDVKVVPIITTCSTEIIGDDVDGVIKKLNEGLLKEKFPDREVHLIAMHTPSFVGSMISGYDVAVRDVVRHFAKREAPNDKINLLTGWVNPGDVKELKHLLGEMDIEANVLFEIESFDSPILPDGSAVSHGNTTIEDLIDTGNARATFALNRYEGTKAAEYLQKKFEIPAIIGPTPIGIRNTDIFLQNLKKATGKPIPQSLAHERGVAIDALADLTHMFLAEKRVAIYGAPDLVIGLAEFCLDLEMKPVLLLLGDDNSKYVDDPRIKALQENVDYGMEIVTNADFWELENRIKNEGLELDLILGHSKGRFISIDYNIPMLRVGFPTYDRAGLFRYPTVGYGGAIWLAEQMANTLFADMEHKKNKEWVLNVW
notes: also called HA::AnfK processed
For B1, the binding result in experiment [1] is “binds”.

With B2, the binding result in experiment [2] is “binds”.

B3: MPP-processed MTP-CoxIV::Twin Strep::AnfK fusion polypeptide (gene of SN195; in SL34, SL37, SL43) (enzyme)
chain: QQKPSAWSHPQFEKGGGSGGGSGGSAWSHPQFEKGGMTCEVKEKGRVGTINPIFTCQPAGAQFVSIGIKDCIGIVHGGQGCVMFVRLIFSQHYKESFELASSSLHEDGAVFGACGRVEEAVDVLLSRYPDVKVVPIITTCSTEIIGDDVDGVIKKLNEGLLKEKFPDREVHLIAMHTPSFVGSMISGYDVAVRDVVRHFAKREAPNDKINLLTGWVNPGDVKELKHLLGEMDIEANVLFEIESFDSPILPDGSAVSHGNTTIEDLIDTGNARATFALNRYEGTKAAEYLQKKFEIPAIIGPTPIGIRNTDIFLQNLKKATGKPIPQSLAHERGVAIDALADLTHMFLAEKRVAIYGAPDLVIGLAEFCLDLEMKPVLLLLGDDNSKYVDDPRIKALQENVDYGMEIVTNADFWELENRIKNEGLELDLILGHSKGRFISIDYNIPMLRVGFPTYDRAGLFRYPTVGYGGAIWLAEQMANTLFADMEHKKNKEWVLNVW
notes: also called MTP-CoxIV::TwinStrep::AvAnfK
Take B3: the binding result in experiment [3] is reported as “binds”.

B4: MPP-processed MTP-FAγ51::NifS::TwinStrep fusion polypeptide encoded by SN231 (scar9::NifS::TS) (enzyme)
chain: not shown
notes: the text names scar9::NifS::TS in the eluate; also called MTP-FAγ51::NifS::TS
Consider B4, for which the binding result in experiment [4] was “binds”.

B5: unprocessed MTP-FAγ51::NifS::HA fusion polypeptide encoded by SN31 (enzyme)
chain: MMAMAVFRREGRRLLPSIAARPIAAIRSPLSSDQEEGLLGVRSISTQVVRNRGGMKQVYLDNNATTRLDPMVLEAMMPFLTDFYGNPSSIHDFGIPAQAALERAHQQAAALLGAEYPSEIIFTSCATEATATAIASAIALLPERREIITSVVEHPATLAACEHLERQGYRIHRIAVDSEGALDMAQFRAALSPRVALVSVMWANNETGVLFPIGEMAELAHEQGALFHCDAVQVVGKIPIAVGQTRIDMLSCSAHKFHGPKGVGCLYLRRGTRFRPLLRGGHQEYGRRAGTENICGIVGMGAACELANIHLPGMTHIGQLRNRLEHRLLASVPSVMVMGGGQPRVPGTVNLAFEFIEGEAILLLLNQAGIAASSGSACTSGSLEPSHVMRAMNIPYTAAHGTIRFSLSRYTREKEIDYVVATLPPIIDRLRALSPYWQNGKPRPADAVFTPVYGGGYPYDVPDYA
notes: Full-length translation product, not cleaved by MPP; also called unprocessed form of the NifS fusion polypeptide
With B5, in experiment [5], the binding result was “no binding”.

Values taken from patent publication US20240117326A1 (COMMONWEALTH SCIENTIFIC AND INDUSTRIAL RESEARCH ORGANISATION, published 2024).
